*1 amine or outer side, *2 acyl side, *3 side chain or, on linkers, in order; H or OH if unused. Bridges are numbered along the chain shown (N, C = ends). [ ]: non-standard residue; d: D form. TBMB = c1c(C[*:1])cc(C[*:3])cc1C[*:2]; NMeY = CN[C@@H](Cc1ccc(O)cc1)C(=O)O; pXylylene = c1cc(C[*:2])ccc1C[*:1]; Dap = NC[C@H](N)C(=O)O; Mpa = O=C(O)CCS; Sar = CNCC(=O)O
T1: Vasoactive intestinal peptide receptor 2 (VIPR2), human, on the human VIPR2-expressing cell line (Catalog No. … (human, UniProt P41587 24-438))
T1 construct: whole, on cells; also called VPAC2; VIPR2-expressing cells
T1 sequence (looked up): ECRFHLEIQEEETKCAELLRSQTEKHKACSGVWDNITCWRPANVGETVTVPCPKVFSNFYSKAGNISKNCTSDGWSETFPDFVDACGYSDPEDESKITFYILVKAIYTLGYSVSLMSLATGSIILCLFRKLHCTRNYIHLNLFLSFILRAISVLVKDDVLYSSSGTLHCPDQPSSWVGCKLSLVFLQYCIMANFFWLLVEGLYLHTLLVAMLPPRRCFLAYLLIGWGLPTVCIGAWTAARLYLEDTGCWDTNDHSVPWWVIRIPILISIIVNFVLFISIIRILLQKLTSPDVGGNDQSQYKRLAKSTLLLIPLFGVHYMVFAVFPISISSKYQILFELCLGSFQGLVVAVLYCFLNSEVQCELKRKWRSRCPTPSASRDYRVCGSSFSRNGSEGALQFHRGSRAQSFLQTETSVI

B1: VIpep-3 (peptide)
peptide: Ac-CPPYLPRRLCTLLLRS-OH
modifications: disulfide 1-10
SMILES: CC(=O)N[C@H]1CSSC[C@@H](C(=O)N[C@H](C(=O)N[C@@H](CC(C)C)C(=O)N[C@@H](CC(C)C)C(=O)N[C@@H](CC(C)C)C(=O)N[C@@H](CCCNC(=N)N)C(=O)N[C@@H](CO)C(=O)O)[C@@H](C)O)NC(=O)[C@H](CC(C)C)NC(=O)[C@H](CCCNC(=N)N)NC(=O)[C@H](CCCNC(=N)N)NC(=O)[C@@H]2CCCN2C(=O)[C@H](CC(C)C)NC(=O)[C@H](Cc2ccc(O)cc2)NC(=O)[C@@H]2CCCN2C(=O)[C@@H]2CCCN2C1=O
notes: also called Vlpep-3
B2: Seq-1 (peptide)
peptide: [Mpa]PPYLPKYLCDLI-NH2
modifications: disulfide 1-10; lactam 7-11
SMILES: CC[C@H](C)[C@H](NC(=O)[C@H](CC(C)C)NC(=O)[C@@H]1CC(=O)NCCCC[C@@H]2NC(=O)[C@@H]3CCCN3C(=O)[C@H](CC(C)C)NC(=O)[C@H](Cc3ccc(O)cc3)NC(=O)[C@@H]3CCCN3C(=O)[C@@H]3CCCN3C(=O)CCSSC[C@H](NC(=O)[C@H](CC(C)C)NC(=O)[C@H](Cc3ccc(O)cc3)NC2=O)C(=O)N1)C(N)=O
notes: Synthetic bicyclic peptide derived from VIpep-3
B3: Seq-2 (peptide)
peptide: XYLPKYLCDLI
modifications: Mpa at position 1; NmeTyr (N-methyl-Tyr) at position 2; thioether bridge via DIBut (1,4-diiodobutane) linker (1-8); side-chain amide(5-9) between Lys5 and Asp9; C-terminal amide (NH2)
notes: Synthetic bicyclic peptide
B4: Seq-3 (peptide)
peptide: XYLPKYLCDLI
modifications: Mpa at position 1; NmeTyr at position 2; thioether bridge via DIPen (1,5-diiodopentane) linker (1-8); side-chain amide(5-9) between Lys5 and Asp9; C-terminal amide (NH2)
notes: Synthetic bicyclic peptide
B5: Seq-4 (peptide)
peptide: XYLPKYLCDLI
modifications: Mpa at position 1; NmeTyr at position 2; thioether bridge via DIHex (1,6-diiodohexane) linker (1-8); side-chain amide(5-9) between Lys5 and Asp9; C-terminal amide (NH2)
notes: Synthetic bicyclic peptide
B6: Seq-5 (peptide)
peptide: XYLPKYLCDLI
modifications: Mpa at position 1; NmeTyr at position 2; thioether bridge via DBoXy (1,2-bis(bromomethyl)benzene) linker (1-8); side-chain amide(5-9) between Lys5 and Asp9; C-terminal amide (NH2)
notes: Synthetic bicyclic peptide
B7: Seq-6 (peptide)
peptide: XYLPKYLCDLI
modifications: Mpa at position 1; NmeTyr at position 2; thioether bridge via DBmXy (1,3-bis(bromomethyl)benzene) linker (1-8); side-chain amide(5-9) between Lys5 and Asp9; C-terminal amide (NH2)
notes: Synthetic bicyclic peptide
B8: Seq-7 (peptide)
peptide: [Mpa][NMeY]LPKYLCDLI-NH2
modifications: linker 1-8 via pXylylene; lactam 5-9
SMILES: CC[C@H](C)[C@H](NC(=O)[C@H](CC(C)C)NC(=O)[C@@H]1CC(=O)NCCCC[C@@H]2NC(=O)[C@@H]3CCCN3C(=O)[C@H](CC(C)C)NC(=O)[C@H](Cc3ccc(O)cc3)N(C)C(=O)CCSCc3ccc(cc3)CSC[C@H](NC(=O)[C@H](CC(C)C)NC(=O)[C@H](Cc3ccc(O)cc3)NC2=O)C(=O)N1)C(N)=O
notes: Synthetic bicyclic peptide
B9: Seq-10 (peptide)
peptide: Ac-CPPYLPKYLCDLI-NH2
modifications: disulfide 1-10; lactam 7-11
SMILES: CC[C@H](C)[C@H](NC(=O)[C@H](CC(C)C)NC(=O)[C@@H]1CC(=O)NCCCC[C@@H]2NC(=O)[C@@H]3CCCN3C(=O)[C@H](CC(C)C)NC(=O)[C@H](Cc3ccc(O)cc3)NC(=O)[C@@H]3CCCN3C(=O)[C@@H]3CCCN3C(=O)[C@@H](NC(C)=O)CSSC[C@H](NC(=O)[C@H](CC(C)C)NC(=O)[C@H](Cc3ccc(O)cc3)NC2=O)C(=O)N1)C(N)=O
notes: Synthetic bicyclic peptide
B10: Seq-8 (peptide)
peptide: [Mpa][NMeY]L[Sar]CYLCSLI-NH2
modifications: linker 1-5-8 via TBMB
SMILES: CC[C@H](C)[C@H](NC(=O)[C@H](CC(C)C)NC(=O)[C@H](CO)NC(=O)[C@@H]1CSCc2cc3cc(c2)CSC[C@H](NC(=O)CN(C)C(=O)[C@H](CC(C)C)NC(=O)[C@H](Cc2ccc(O)cc2)N(C)C(=O)CCSC3)C(=O)N[C@@H](Cc2ccc(O)cc2)C(=O)N[C@@H](CC(C)C)C(=O)N1)C(N)=O
notes: Synthetic bicyclic peptide
B11: Seq-9 (peptide)
peptide: [Mpa][NMeY]L[Sar]CYLC[Dap]LI-NH2
modifications: linker 1-5-8 via TBMB
SMILES: CC[C@H](C)[C@H](NC(=O)[C@H](CC(C)C)NC(=O)[C@H](CN)NC(=O)[C@@H]1CSCc2cc3cc(c2)CSC[C@H](NC(=O)CN(C)C(=O)[C@H](CC(C)C)NC(=O)[C@H](Cc2ccc(O)cc2)N(C)C(=O)CCSC3)C(=O)N[C@@H](Cc2ccc(O)cc2)C(=O)N[C@@H](CC(C)C)C(=O)N1)C(N)=O
notes: Synthetic bicyclic peptide

The binders below were run against T1, Vasoactive intestinal peptide receptor … (assay: competitive cell-based ELISA on human VIPR2-expressing cells; competitor Biotin-VIpep-3 (1000 nM)).
Method: (§1) To confirm the binding activity of the amino acid substituted peptides to VIPR2, a competitive binding assay was constructed using the cell-based ELISA method shown in FIG. 3. The following is a brief description of this cell-based ELISA method. Human VIPR2-expressing cell line (Catalog No. HTS079RTA, manufactured by EUROFINS) was spread in a 96-well plate using the culture medium provided by the manufacturer, and cultured overnight at 37° C. in a CO₂ incubator. After washing the plates with HBSS containing 0.1% BSA, the mixtures containing Biotin-VIpep-3 (1000 nM) and any concentration of amino acid substituted peptide or VIpep-3 were prepared and added at 50 μL/well. After reaction on ice for 60 minutes, the plate was washed with 0.1% BSA containing HBSS. Biotin-VIpep-3 bound to VIPR2-expressing cells adhering to the plate was detected with SA-HRP (catalog no. ab7403, Abcam). For HRP quantification, SuperSignal ELISA Pico Chemiluminescent Substrate (Catalog No. 37070, ThermoFisher) was used to measure chemiluminescence values. […] In other words, the binding activity of amino acid substituted peptides and VIpep-3 to VIPR2 is detected as a competitive inhibitory activity against Biotin-VIpep-3 binding. […] Then, using the 50% inhibitory activity value of VIpep-3 as 1, the relative inhibitory activity values of the amino acid-substituted peptides were calculated.

Binding result, binds:
B1

Each binder was assayed against T1, Vasoactive intestinal peptide receptor … (assay: summary of the Examples (binding to VIPR2-expressing cells)).

Binding result, binds:
B2
B3
B4
B5
B6
B7
B8
B9

What follows are binders tested against T1, Vasoactive intestinal peptide receptor … (assay: competitive cell-based ELISA on human VIPR2-expressing cells; competitor Biotin-VIpep-3 (1000 nM), N=4).
Method: as §1

Binding result, binds:
B10
B11

Source: patent US20260274896A1 (ICHIMARU PHARCOS, published 2026)
